Measurements as given in patent US11008403 (dated 2021).
Numbering of substitutions follows the chain as printed. Numbers in names are those of the source. Where “and” joins values, the source holds several entries; their conditions need not be identical. Equal entries are not always repeated. Where two headings read alike, the source gives them in different places. Blank lines part the entries; values can stand above or below the binder they belong to.

Legend:
human FcRn = human FcRn (human, UniProt P55899); experiment: SPR, pH 6.0
cyno FcRn = molecular target: T1, cyno FcRn (cynomolgus, UniProt Q8SPV9); experiment: SPR, pH 6.0
T1 chain 1: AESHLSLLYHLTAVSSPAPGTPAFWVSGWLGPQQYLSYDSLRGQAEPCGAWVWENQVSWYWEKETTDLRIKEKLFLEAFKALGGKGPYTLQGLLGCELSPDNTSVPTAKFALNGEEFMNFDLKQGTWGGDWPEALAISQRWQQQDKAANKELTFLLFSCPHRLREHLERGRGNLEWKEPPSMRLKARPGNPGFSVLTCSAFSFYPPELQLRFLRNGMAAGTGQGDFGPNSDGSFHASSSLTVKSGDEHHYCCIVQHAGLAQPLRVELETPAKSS
T1 chain 2: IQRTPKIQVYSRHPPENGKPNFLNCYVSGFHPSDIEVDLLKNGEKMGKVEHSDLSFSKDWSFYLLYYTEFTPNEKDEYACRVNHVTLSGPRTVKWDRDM

cyno TfR ECD [1] = molecular target: T2, cyno TfR ECD (cynomolgus); experiment: SPR
T2 chain: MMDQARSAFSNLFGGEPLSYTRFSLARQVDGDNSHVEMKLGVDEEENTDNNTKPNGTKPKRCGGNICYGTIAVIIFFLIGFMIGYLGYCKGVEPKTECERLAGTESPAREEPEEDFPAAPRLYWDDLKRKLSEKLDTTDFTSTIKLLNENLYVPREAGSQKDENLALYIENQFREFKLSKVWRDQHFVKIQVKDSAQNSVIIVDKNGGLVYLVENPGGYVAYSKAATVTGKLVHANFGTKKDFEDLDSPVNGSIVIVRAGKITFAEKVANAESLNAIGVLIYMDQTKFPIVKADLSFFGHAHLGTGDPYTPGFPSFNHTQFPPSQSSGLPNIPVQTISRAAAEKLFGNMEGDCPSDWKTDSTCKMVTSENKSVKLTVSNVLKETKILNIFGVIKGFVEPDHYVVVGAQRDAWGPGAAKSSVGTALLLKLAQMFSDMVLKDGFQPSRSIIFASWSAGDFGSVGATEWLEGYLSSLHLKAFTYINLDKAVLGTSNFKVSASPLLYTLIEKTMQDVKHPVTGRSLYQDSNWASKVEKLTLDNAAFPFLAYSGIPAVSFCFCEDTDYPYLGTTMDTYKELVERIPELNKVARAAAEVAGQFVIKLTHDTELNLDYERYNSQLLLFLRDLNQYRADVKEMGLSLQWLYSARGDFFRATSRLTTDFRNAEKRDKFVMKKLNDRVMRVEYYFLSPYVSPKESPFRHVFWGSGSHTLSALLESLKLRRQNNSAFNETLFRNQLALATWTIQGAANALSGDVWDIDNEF

human TfR ECD [2] = molecular target: human TfR ECD (human); experiment: SPR
human TfR ECD [3] = molecular target: human TfR ECD (human); experiment: SPR; remark: listed apart in the source
cyno TfR ECD [4] = molecular target: T2, cyno TfR ECD; experiment: SPR
human TfR ECD [5] = molecular target: human TfR ECD (human); experiment: SPR; remark: listed apart in the source
cyno TfR ECD [6] = molecular target: T2, cyno TfR ECD; experiment: SPR
cyno TfR ECD [7] = molecular target: T2, cyno TfR ECD; experiment: SPR
human TfR ECD [8] = molecular target: human TfR ECD (human); experiment: SPR; remark: listed apart in the source

Kd (human FcRn): 300 nM
Kd (cyno FcRn): 200 nM
B1: Anti-TfR2/6266.hIgG1.LALAPG.YTE (antibody)
chain 1: EVQLVQSGAEVKKPGASVKVSCKASGYTFTSYWMHWVRQAPGQRLEWIGEINPTNGRTNYIEKFKSRATLTVDKSASTAYMELSSLRSEDTAVYYCARGTRAYHYWGQGTMVTVSSASTKGPSVFPLAPSSKSTSGGTAALGCLVKDYFPEPVTVSWNSGALTSGVHTFPAVLQSSGLYSLSSVVTVPSSSLGTQTYICNVNHKPSNTKVDKKVEPKSCDKTHTCPPCPAPEAAGGPSVFLFPPKPKDTLYITREPEVTCVVVDVSHEDPEVKFNWYVDGVEVHNAKTKPREEQYNSTYRVVSVLTVLHQDWLNGKEYKCKVSNKALGAPIEKTISKAKGQPREPQVYTLPPSREEMTKNQVSLSCAVKGFYPSDIAVEWESNGQPENNYKTTPPVLDSDGSFFLVSKLTVDKSRWQQGNVFSCSVMHEALHNHYTQKSLSLSPGK
chain 2: DIQMTQSPSSLSASVGDRVTITCRASDNLYSNLAWYQQKPGKSPKLLVYDATNLADGVPSRFSGSGSGTDYTLTISSLQPEDFATYYCQHFAGTPLTFGQGTKVEIKRTVAAPSVFIFPPSDEQLKSGTASVVCLLNNFYPREAKVQWKVDNALQSGNSQESVTEQDSKDSTYSLSSTLTLSKADYEKHKVYACEVTHQGLSSPVTKSFNRGEC
chain 3: not shown
chain 4: not shown

Kd (human FcRn): 800 nM
Kd (cyno FcRn): 1200 nM
B2: Anti-TfR.52A/6266.hIgG1.LALAPG (antibody)
chain 1: B1 chain 1 with N52A, Y251M, T253S, E255T
chain 2: B1 chain 2 with A92W
chain 3: not shown
chain 4: not shown

Kd (human FcRn): 200 nM
Kd (cyno FcRn): 200 nM
B3: Anti-TfR.52A/6266.hIgG1.LALAPG.YTE (antibody)
chain 1: B1 chain 1 with N52A
chain 2: B1 chain 2 with A92W
chain 3: not shown
chain 4: not shown

Kd (human FcRn): 1100 nM
Kd (cyno FcRn): 1200 nM
B4: Anti-TfR2/6266.hIgG1.LALAPG (antibody)
chain 1: B1 chain 1 with Y251M, T253S, E255T
chain 2: B1 chain 2
chain 3: not shown
chain 4: not shown

Kd (cyno TfR ECD [1]): 26.8 nM
Kd (human TfR ECD [2]): 3.13 nM
B5: Mu16F6 Fab (antibody, V domains shown)
VH: DVQLQESGPGLVKPSQSLSLTCTVTGNSITSEYAWNWIRQFPGNKLEWMGYISYSGTTSYNPSLKSRISITRDTSKNQLFLQLNSVTTEDTATYFCARYGYGNPATRYFDVWGAGTTVTVSS
VL: DVQITQSPSYLTASPGETITINCRASKSISKYLAWYQEKPGKTNKLLIYSGSTLQSGIPSRFSGSGSGTDFTLTISNLEPEDFAMYYCQQHNEYPWTFGGGTKLEIK

Kd (cyno TfR ECD [1]): 5.81 nM and 7.57 nM
Kd (human TfR ECD [2]): 3.37 nM
B6: Mu15G11 Fab (antibody, V domains shown)
VH: QVQLQQPGAELVKPGASVKLSCKASGYTFTSYWMHWVKQRPGQGLEWIGEINPTNGRTNYIEKFKSKATLTVDKSSSTAYMQLSSLTSEDSAVYYCARGTRAYHYWGQGTSVTVSS
VL: DIQMTQSPASLSVSVGETVTITCRASDNLYSNLAWYQQKQGKSPQLLVYDATNLADGVPSRFSGSGSGTQYSLKINSLQSEDFGTYYCQHFWGTPLTFGAGTKLELK

Kd (cyno TfR ECD [1]): 4.28 nM
Kd (human TfR ECD [2]): 0.348 nM
B7: Hu7A4.v15 Fab (antibody, V domains shown)
VH: EVQLVQSGAEVKKPGASVKVSCKGSGYTFTDYAMHWVRQAPGQGLEWMGGISTYFGRTNYNQKFKGRVTMTVDTSISTAYMELSRLRSDDTAVYYCARGLSGNYVMDYWGQGTTVTVSS
VL: DIVMTQSPDSLAVSLGERATINCRASESVDSYGNSFMHWYQQKPGQPPKLLIYRASNLESGVPDRFSGSGSRTDFTLTISSLQAEDVAVYYCQQSNEAPPTFGQGTKLEIK

Kd (cyno TfR ECD [1]): 0.741 nM
Kd (human TfR ECD [2]): 0.19 nM
B8: Mu7A4 Fab (antibody, V domains shown)
VH: QVQLQQSGPELVRPGVSVKISCKGSGYTFTDYAMHWVKQSHAKSLEWIGGISTYFGRTNYNQKFKGRATMTVDKSSSTAYMELARLTSEDSALYYCARGLSGNYVMDYWGQGTSVTVSS
VL: DIVLTQSPASLAVSLGQRATISCRASESVDSYGNSFMHWYQQKPGQPPKLLIYRASNLESGIPARFSGSGSRTDFTLTINPVEADDVATYYCQQSNEGPPTFGGGTKLEIK

Kd (cyno TfR ECD [1]): 188 nM
Kd (human TfR ECD [2]): 45.8 nM
B9: Hu7G7.v1 Fab (antibody, V domains shown)
VH: EVQLVQSGAEVKKPGASVKVSCKASGYTFTSYWMHWVRQAPGQGLEWIGNIYPGSGSTKYDERFKSRVTITVDTSTSTAYLELSSLRSEDTAVYYCTRGGYDSRAWFAYWGQGTLVTVSS
VL: DIVMTQSPDSLAVSLGERATINCRARQSVSTSSYSFMHWYQQPAGQPPKLLIKYASIQESGVPDRFSGSGSGTDFTLTISSLQAEDVAVYYCQHTWEIPFTFGQGTKVEIK

Kd (human TfR ECD [3]): 7.14 nM
Kd (cyno TfR ECD [4]): 32.6 nM
B10: Hu15G11.HC34A Fab (antibody, V domains shown)
VH: EVQLVQSGAEVKKPGASVKVSCKASGYTFTSYWAHWVRQAPGQRLEWIGEINPTNGRTNYIEKFKSRATLTVDKSASTAYMELSSLRSEDTAVYYCARGTRAYHYWGQGTMVTVSS
VL: DIQMTQSPSSLSASVGDRVTITCRASDNLYSNLAWYQQKPGKSPKLLVYDATNLADGVPSRFSGSGSGTDYTLTISSLQPEDFATYYCQHFWGTPLTFGQGTKVEIK

Kd (human TfR ECD [5]): 295 nM
Kd (cyno TfR ECD [6]): 622 nM
B11: Hu15G11.W92A bispecific, TfR arm (antibody, V domains shown)
VH: B10 VH with A34M
VL: B10 VL with W92A

Kd (human TfR ECD [3]): 12.9 nM
Kd (cyno TfR ECD [4]): 51.8 nM
B12: Hu15G11.HC53A Fab (antibody, V domains shown)
VH: B10 VH with A34M, T54A
VL: B10 VL

Kd (cyno TfR ECD [7]): 1650 nM
B13: Anti-TfR2/6266.hIgG1.LALAPG.YTE, TfR arm (antibody, V domains shown)
VH: B10 VH with A34M
VL: DIQMTQSPSSLSASVGDRVTITCRASDNLYSNLAWYQQKPGKSPKLLVYDATNLADGVPSRFSGSGSGTDYTLTISSLQPEDFATYYCQHFAGTPLTFGQGTKVEIKR

Kd (human TfR ECD [8]): 72.2 nM
B14: antiTfR.52A.M108L.Fab (antibody, V domains shown)
VH: B10 VH with A34M, N52A, M111L
VL: B10 VL

Kd (human TfR ECD [8]): 55 nM
Kd (human TfR ECD [3]): 34.6 nM and 44.4 nM
Kd (cyno TfR ECD [4]): 117 nM
B15: Hu15G11.HC52A Fab (antiTfR.52A.Fab) (antibody, V domains shown)
VH: B10 VH with A34M, N52A
VL: B10 VL

Kd (cyno TfR ECD [1]): 15.6 nM
Kd (human TfR ECD [3]): 7.03 nM
Kd (human TfR ECD [2]): 4.7 nM and 8.91 nM
Kd (cyno TfR ECD [4]): 28.2 nM
Kd (human TfR ECD [5]): 7.03 nM
Kd (cyno TfR ECD [6]): 28.2 nM
B16: Hu15G11.v5 Fab (antibody, V domains shown)
VH: B10 VH with A34M
VL: B10 VL

Kd (human TfR ECD [3]): 23.9 nM
Kd (cyno TfR ECD [4]): 105 nM
B17: Hu15G11.HC51A Fab (antibody, V domains shown)
VH: B10 VH with A34M, I51A
VL: B10 VL

Kd (human TfR ECD [3]): 7.47 nM
B18: Hu15G11.HC32A Fab (antibody, V domains shown)
VH: B10 VH with Y32A, A34M
VL: B10 VL

Kd (cyno TfR ECD [1]): 24.7 nM
Kd (human TfR ECD [2]): 1.29 nM
B19: Hu16F6.v4 Fab (antibody, V domains shown)
VH: EVQLVESGPGLVKPSETLSLTCTVSGNSITSEYAWNWIRQPPGKGLEWIGYISYSGTTSYNPSLKSRVTISRDTSKNQLSLKLSSVTAADTAVYYCARYGYGNPATRYFDVWGQGTLVTVSS
VL: DIQMTQSPSSLSASVGDRVTITCRASKSISKYLAWYQQKPGKTNKLLLYSGSTLQSGVPSRFSGSGSGTDYTLTISSLQPEDFATYYCQQHNEYPWTFGQGTKVEIK
